Experimental data taken from patent US20170190774A1 (REPROPHARM, published 2017).
Like-named read-outs stand apart in the source and are kept apart here. Values belong to the binder of their own block, whether it stands above or below them.

Tests used:
[1] = target: T1, ovine FSH (oFSH) (ovine, UniProt P01218 25-120; P01227 20-129); test: cell-based or functional assay
[2] = target: T2, human FSH Gonal-F (recombinant human FSH, Merck Serono) (human, UniProt P01215 25-116; P01225 19-129); test: cell-based or functional assay
T2 sequence (P01215 25-116, chain 1 of 2): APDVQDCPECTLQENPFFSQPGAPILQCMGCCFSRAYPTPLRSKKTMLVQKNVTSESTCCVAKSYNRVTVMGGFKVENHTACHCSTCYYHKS
T2 sequence (P01225 19-129, chain 2 of 2): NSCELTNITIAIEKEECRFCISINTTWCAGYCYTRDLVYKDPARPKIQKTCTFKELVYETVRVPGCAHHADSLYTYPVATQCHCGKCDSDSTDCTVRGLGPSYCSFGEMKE

[3] = target: T3, β-subunit of ovine FSH (ovine, UniProt P01227 20-129); test: ELISA, subunit adsorbed on the plate, antibody titrated; (A/B)x100 relative to oFSH
T3 construct: mature; Isolated subunit adsorbed on the ELISA plate; also called β-s.u. oFSH; β-oFSH
Experimental: (§1) The specificity of the antibodies and of the scFv thereof was studied by the ELISA technique. Each hormone evaluated was prepared at the concentration of 10 μg/ml in a 0.1M sodium carbonate buffer, pH 9.6, and distributed in a proportion of 100 μl per well on an ELISA plate. The adsorption time was 18 hours at +4° C. After five washes, the wells were treated with 100 μl of PBS supplemented with 0.1% Tween and 1% BSA for 45 minutes at 37° C., then each antibody or scFv was distributed in a proportion of 100 μl/well and incubated for one hour at 37° C. On each hormone evaluated, the antibodies and the scFvs were distributed at various concentrations according to a range of 10 to 250 μg/ml for the antibodies and of 10 to 150 or 200 μg/ml for the scFvs.
(§2) After five washes, a secondary antibody coupled to peroxidase (HRP) was distributed in a proportion of 100 μl/well and incubated for one hour at 37° C. […] For the scFvs, an anti-His Tag HRP (Ref. R93125 Life Technologies, France) was used. […] After the reaction had been stopped with 1M H₂SO₄ (50 μl/well), the strength of the colored reaction (optical density) was measured using a spectrophotometer for ELISA plates.
(§3) The percentage of cross reaction was calculated conventionally by comparing the dose-response curves obtained with the concentration range of the antibody or of the scFv.

[4] = target: T4, α-subunit of ovine FSH (ovine, UniProt P01218 25-120); test: as above
Experimental: as §1, §2, §3

[5] = target: T5, β-subunit of human FSH (human, UniProt P01225 19-129); test: as above
T5 construct: mature; Isolated subunit adsorbed on the ELISA plate; also called β-s.u. hFSH
T5 sequence (P01225 19-129): as the sequence (P01225 19-129, chain 2 of 2) above
Experimental: as §1, §2, §3

[6] = target: T6, human FSH Puregon (recombinant human FSH, Merck Schering-Plough) (human, UniProt P01215 25-116; P01225 19-129); test: ELISA, hormone adsorbed on the plate, antibody titrated; (A/B)x100 relative to oFSH
T6 construct: mature; Recombinant pharmaceutical preparation; also called hFSH (Puregon); hFSH Puregon
T6 sequence (P01215 25-116, chain 1 of 2): as the sequence (P01215 25-116, chain 1 of 2) above
T6 sequence (P01225 19-129, chain 2 of 2): as the sequence (P01225 19-129, chain 2 of 2) above
Experimental: as §1, §2, §3

[7] = target: T2, human FSH Gonal-F (recombinant human …); test: as above
Experimental: as §1, §2, §3

[8] = target: T7, human FSH Fostimon (purified FSH extracted from urine, Laboratoire Genévrier) (human, UniProt P01215 25-116; P01225 19-129); test: as above
T7 construct: mature; Extracted pharmaceutical preparation; also called hFSH (Fostimon); hFSH Fostimon
T7 sequence (P01215 25-116, chain 1 of 2): as the sequence (P01215 25-116, chain 1 of 2) above
T7 sequence (P01225 19-129, chain 2 of 2): as the sequence (P01225 19-129, chain 2 of 2) above
Experimental: as §1, §2, §3

[9] = target: T8, porcine FSH (pFSH) (porcine, UniProt P01219 25-120; P01228 21-129); test: as above
Experimental: as §1, §2, §3

[10] = target: T1, ovine FSH (oFSH); test: ELISA saturation binding, one site-specific binding fit in GraphPad Prism (estimate); differs from Table 25
[11] = target: T9, ovine LH (oLH) (ovine, UniProt P01218 25-120; P01231 21-141); test: ELISA saturation binding, one site-specific binding fit in GraphPad Prism (estimate)
Experimental: as §1

[12] = target: T10, hCG Endo 5000 (purified human chorionic gonadotropin, Schering-Plough) (human, UniProt P01215 25-116; P0DN86 21-165); test: as above
T10 construct: mature; Extracted pharmaceutical preparation
T10 sequence (P01215 25-116, chain 1 of 2, other chains not shown): as the sequence (P01215 25-116, chain 1 of 2) above
Experimental: as §1

[13] = target: T6, human FSH Puregon (recombinant human …); test: as above
Experimental: as §1

[14] = target: T1, ovine FSH (oFSH); test: as above
Experimental: as §1

[15] = target: T2, human FSH Gonal-F (recombinant human …); test: as above
Experimental: as §1

[16] = target: T7, human FSH Fostimon (purified FSH …); test: as above
Experimental: as §1

[17] = target: T11, porcine LH (pLH) (porcine, UniProt P01219 25-120; P01232 21-141); test: as above
Experimental: as §1

[18] = target: T12, equine chorionic gonadotropin (eCG) (equine, UniProt P01220 25-120; P08751 21-169); test: as above
T12 construct: mature; Alpha/beta dimer
T12 sequence (P01220 25-120, chain 1 of 2): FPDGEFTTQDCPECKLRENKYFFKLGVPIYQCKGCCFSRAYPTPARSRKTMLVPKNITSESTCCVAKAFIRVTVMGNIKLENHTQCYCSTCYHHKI
T12 sequence (P08751 21-169, chain 2 of 2): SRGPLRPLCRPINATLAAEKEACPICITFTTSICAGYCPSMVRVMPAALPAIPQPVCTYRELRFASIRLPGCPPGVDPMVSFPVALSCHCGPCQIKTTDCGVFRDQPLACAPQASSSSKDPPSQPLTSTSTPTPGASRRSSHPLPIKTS
Experimental: as §1

[19] = target: T13, bovine LH (bLH) (bovine, UniProt P01217 25-120; P04651 21-141); test: as above
Experimental: as §1

[20] = target: T14, hCG Chorulon (human chorionic gonadotropin extracted from urine, MSD) (human, UniProt P01215 25-116; P0DN86 21-165); test: as above
T14 construct: mature; Extracted veterinary preparation
T14 sequence (P01215 25-116, chain 1 of 2, other chains not shown): as the sequence (P01215 25-116, chain 1 of 2) above
Experimental: as §1

[21] = target: T8, porcine FSH (pFSH); test: as above
Experimental: as §1

[22] = target: T9, ovine LH (oLH); test: ELISA, hormone adsorbed on the plate, scFv titrated, anti-His HRP; (A/B)x100 relative to oFSH
Experimental: as §1, §2, §3

[23] = target: T6, human FSH Puregon (recombinant human …); test: as above
Experimental: as §1, §2, §3

[24] = target: T2, human FSH Gonal-F (recombinant human …); test: as above
Experimental: as §1, §2, §3

[25] = target: T7, human FSH Fostimon (purified FSH …); test: as above
Experimental: as §1, §2, §3

[26] = target: T11, porcine LH (pLH); test: as above
Experimental: as §1, §2, §3

[27] = target: T13, bovine LH (bLH); test: as above
Experimental: as §1, §2, §3

[28] = target: T8, porcine FSH (pFSH); test: as above
Experimental: as §1, §2, §3

[29] = target: T3, β-subunit of ovine FSH; test: ELISA, subunit adsorbed on the plate, antibody titrated; (A/B)x100 relative to oFSH; remark: listed apart in the source
[30] = target: T4, α-subunit of ovine FSH; test: as above; remark: listed apart in the source
[31] = target: T5, β-subunit of human FSH; test: as above; remark: listed apart in the source

amplification of cAMP secretion, bovine granulosa cells [1]: 5.5 fold
EC50 of the hFSH/CH10 complex, cAMP (GloSensor), HEK 293 cells with the human FSH receptor [2]: 0.317 nM
cross reaction [3]: 88%
cross reaction [4]: 43%
cross reaction [5]: 40%
cross reaction [6]: 71%
cross reaction [7]: 50%
cross reaction [8]: 100%
cross reaction [9]: 24%
B1: CH10 monoclonal antibody (antibody, IgM, V domains shown)
VH: EVQLVESGGGLVQPKGSLKLSCAASGFTFNTYAMNWVRQAPGKGLEWVARIRSKSNNYATYYADSVKDRFTISRDDSQSMLYLQMNNLKTEDTAMYYCVRQDYYGSSYFDYWGQGTTLTVSS
VL: DIVMTQSPATLSVTPGDRVSLSCRASQSISDYLHWYQQKSHESPRLLIKYASQSISGIPSRFSGSGSGSDFTLSINSVEPEDVGVYYCQNGHSFPYTFGGGTKLEIK
notes: also called CH10 antibody; CH10 ligand

Kd [10]: 7510 nM
Kd [11]: 1550 nM
Kd [12]: 2090 nM
Kd [13]: 11500 nM
Kd [14]: 2850 nM
Kd [15]: 1820 nM
Kd [16]: 1590 nM
Kd [17]: 2470 nM
Kd [19]: 1940 nM
Kd [20]: 1470 nM
Kd [21]: 5220 nM
cross reaction [22]: 68%
cross reaction [23]: 67%
cross reaction [24]: 32%
cross reaction [25]: 30%
cross reaction [26]: 63%
cross reaction [27]: 52%
cross reaction [28]: 175%
B2: CH10 scFv (scFv)
scFv: QVQLQQSGGGLVQPKGSLKLSCAASGFTFNTYAMNWVRQAPGKGLEWVARIRSKSNNYATYYADSVKDRFTISRDDSQSMLYLQMNNLKTEDTAMYYCVRQDYYGSSYFDYWGQGTTLTVSSGGGGSGGGGSGGGGSDIQMTQTPATLSVTPGDRVSLSCRASQSISDYLHWYQQKSHESPRLLIKYASQSISGIPSRFSGSGSGSDFTLSINSVEPEDVGVYYCQNGHSFPYTFGGGTKLEIKHHHHHH
notes: VH-(Gly4Ser)3-VL-His6, made in the E. coli periplasm; also called scFv derived from the CH10 antibody
Kd [18]: 1970 nM

EC50 of the oFSH/CA5 complex, cAMP (GloSensor), HEK 293 cells with the human FSH receptor [1]: 0.283 nM
amplification of cAMP secretion, bovine granulosa cells [1]: 1.3 fold
EC50 of the hFSH/CA5 complex, cAMP (GloSensor), HEK 293 cells with the human FSH receptor [2]: 0.136 nM
cross reaction [29]: 80%
cross reaction [30]: 6%
cross reaction [31]: 50%
cross reaction [6]: 70%
cross reaction [7]: 128%
cross reaction [8]: 76%
cross reaction [9]: 134%
B3: CA5 monoclonal antibody (antibody, IgG2a, V domains shown)
VH: EVKLVESGGGLVQPGGSLRLSCATSGFTFSDFYMEWVRQPPGKRLEWIAASRNKAKDYTTEYSASVKGRFIVSRDTSQSILYLQMNALRAEDTAIYFCARDARFAYWGQGTLVTVSA
VL: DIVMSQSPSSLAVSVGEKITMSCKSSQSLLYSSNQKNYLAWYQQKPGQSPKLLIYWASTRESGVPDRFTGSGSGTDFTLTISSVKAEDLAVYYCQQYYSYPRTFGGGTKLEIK
notes: also called CA5 antibody; CA5 ligand
